Publication PMC12403049, “Structural basis of ClC-3 transporter inhibition by TMEM9 and PtdIns(3,5)P2” (Nature Structural & Molecular Biology, 2025)

B1: human ClC-3 purified alone (C-terminal mCerulean tag removed) (natural protein)
chain: MESEQLFHRGYYRNSYNSITSASSDEELLDGAGVIMDFQTSEDDNLLDGDTAVGTHYTMTNGGSINSSTHLLDLLDEPIPGVGTYDDFHTIDWVREKCKDRERHRRINSKKKESAWEMTKSLYDAWSGWLVVTLTGLASGALAGLIDIAADWMTDLKEGICLSALWYNHEQCCWGSNETTFEERDKCPQWKTWAELIIGQAEGPGSYIMNYIMYIFWALSFAFLAVSLVKVFAPYACGSGIPEIKTILSGFIIRGYLGKWTLMIKTITLVLAVASGLSLGKEGPLVHVACCCGNIFSYLFPKYSTNEAKKREVLSAASAAGVSVAFGAPIGGVLFSLEEVSYYFPLKTLWRSFFAALVAAFVLRSINPFGNSRLVLFYVEYHTPWYLFELFPFILLGVFGGLWGAFFIRANIAWCRRRKSTKFGKYPVLEVIIVAAITAVIAFPNPYTRLNTSELIKELFTDCGPLESSSLCDYRNDMNASKIVDDIPDRPAGIGVYSAIWQLCLALIFKIIMTVFTFGIKVPSGLFIPSMAIGAIAGRIVGIAVEQLAYYHHDWFIFKEWCEVGADCITPGLYAMVGAAACLGGVTRMTVSLVVIVFELTGGLEYIVPLMAAVMTSKWVGDAFGREGIYEAHIRLNGYPFLDAKEEFTHTTLAADVMRPRRNDPPLAVLTQDNMTVDDIENMINETSYNGFPVIMSKESQRLVGFALRRDLTIAIESARKKQEGIVGSSRVCFAQHTPSLPAESPRPLKLRSILDMSPFTVTDHTPMEIVVDIFRKLGLRQCLVTHNGRLLGIITKKDILRHMAQTANQDPASIMFN
notes: human ClC-3 (P51790), the long isoform used for structural analysis (proton glutamate E339); The cloning of a C-terminally tagged ClC-3 is not described elsewhere in the methods; Residues of the PreScission linker may be left after cleavage; also called ligand-free human ClC-3; not shown: mCerulean, C-terminal, cleaved
B2: human ClC-3 purified in complex with T9A (N-terminal mCerulean tag removed) (natural protein)
chain: B1 chain
notes: human ClC-3 (P51790), the long isoform used for structural analysis (proton glutamate E339); Residues of the PreScission linker may be left on the N-terminus after cleavage; PtdIns(3,5)P2 co-purified with the complex; also called ClC-3/T9A; ClC-3/noT9A; not shown: mCerulean, N-terminal, cleaved

Tests used:
[1] = target: the molecule itself; experiment: cryo-EM structure; ClC-3 alone, 3 mg/ml, no exogenous ligands, glyco-diosgenin, 50 mM Tris-HCl pH 8, 150 mM KCl, 2 mM DTT; C2 symmetry
[2] = target: the molecule itself; experiment: cryo-EM structure; ClC-3 co-expressed and co-purified with T9A, 5 mg/ml, no exogenous ligands, glyco-diosgenin, 50 mM Tris-HCl pH 8, 150 mM KCl, 2 mM DTT; four classes by 3D classification

Protein	stoichiometry N [1]	stoichiometry N [2]
B1	2	–
B2	–	2
